The target of the test is Aβ40 fibrils formed from a synthetic Aβ40 peptide (human). Kind of test: cell-based or functional assay.

From patent US20100129294A1 come the findings set out here.

In turn, “nattokinase (from UniProt P35835 107-381) (enzyme)” came in with a rate of Aβ fibril degradation (37 C, pH 7.4, ThT binding assay) of 0.015 s⁻¹.
